Measured values reported in patent publication US20040023883A1 (published 2004).

Columns and labels:
[1] = biological target: IGF-I S1A on phage (G1S-A70V template) (human; bacteriophage M13); test: competitive phage ELISA
Text: (§1) Phage particles were harvested and resuspended in PBS buffer as described in Lowman, H. B., “Phage Display of Peptide Libraries on Protein Scaffolds,” in Cabilly, S. (ed.), Combinatorial Peptide Library Protocols (Humana Press Inc.: Totowa, N.J., 1998), pp. 249-264. Then phage concentrations were normalized to yield a maximal ELISA signal of 0.2-0.4 for each mutant (Lowman, in Cabilly, S. (ed.), supra). […] After blocking, the plates containing immobilized target were washed with 0.05% TWEEN™/PBS buffer and subsequently incubated with 80 μl/well of the premixed phage-competitor solutions for 1 hour at room temperature. After washing, bound phage was detected with 80 μl/well of a solution containing a primary rabbit anti-phage polyclonal antibody and a secondary goat anti-rabbit monoclonal antibody-horseradish peroxidase conjugate in 0.5% TWEEN 20™/PBS. o-Phenylenediamine (Sigma) and tetramethylbenzidine (Kirkegaard and Perry) were used as chromogenic substrates, resulting in product detection at 492 and 450 nm, respectively. IC₅₀ values were determined by fitting the binding data to a generic saturation curve (Lowman, in Cabilly, S. (ed.), supra).
(§2) At least two different clones of every mutant were tested.

[2] = biological target: T1, IGF-I P2A on phage (G1S-A70V template) (human; bacteriophage M13); test: competitive phage ELISA
T1 construct: not shown: M13 gene III fragment (residues 249-406), the display carrier, and its junction to IGF-I
Text: as §1, §2

[3] = biological target: T2, IGF-I F49A on phage (G1S-A70V template) (human; bacteriophage M13); test: competitive phage ELISA; conditions: remark: other sources report otherwise
T2 chain: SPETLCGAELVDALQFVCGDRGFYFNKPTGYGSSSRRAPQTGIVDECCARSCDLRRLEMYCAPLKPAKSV

[4] = biological target: T2, IGF-I F49A on phage (G1S-A70V template) …; test: competitive phage ELISA; ratio against IGFBP-3; conditions: remark: other sources report otherwise

IC50 [1]: 5.2 nM
IC50 [2]: 11 nM
relative IC50 (IC50 mut/IC50 G1S-A70V) [3]: > 100
relative specificity (relative IC50 IGFBP-1/relative IC50 IGFBP-3) [4]: > 28
B1: human IGFBP-1 (other, UniProt P08833 26-259, looked up)
chain: APWQCAPCSAEKLALCPPVSASCSEVTRSAGCGCCPMCALPLGAACGVATARCARGLSCRALPGEQQPLHALTRGQGACVQESDASAPHAAEAGSPESPESTEITEEELLDNFHLMAPSEEDHSILWDAISTYDGSKALHVTNIKKWKEPCRIELYRVVESLAKAQETSGEEISKFYLPNCNKNGFYHSRQCETSMDGEAGLCWCVYPWNGKRIPGSPEIRGDPNCQIYFNVQN
notes: Recombinant secreted protein
